These results are taken from US20230357447A1 (JANUX THERAPEUTICS, published 2023).

Assay [1] deals with T1, Ab-12, anti-PD-L1xCD28 non-masked antibody in Vh format.
T1 construct: also called PDL1xCD28 non-masked (Vh)
Briefly: competition ELISA: peptide titrated against 5 nM Ab-12; binding of Ab-12 to captured biotinylated CD28 antigen is read; table prints 'IC50 nM' but the axis is Log [Peptide, uM] and the curve falls between Log 0.5 and Log 2. For orientation: In an ELISA, binding on a coated surface is turned into a signal by an enzyme label.

The target of assay [2] is T1, Ab-12, anti-PD-L1xCD28 non-masked …. In words: competition ELISA: peptide titrated against 5 nM Ab-12; binding of Ab-12 to captured biotinylated CD28 antigen is read.
The target in assay [3] is T2, anti-CD28 scFv (SEQ ID NO: 9).
T2 construct: also called Anti-CD28 scFv (VH-linker 1-VL)
In words: competition ELISA: peptide titrated against 2 nM anti-CD28 scFv; binding of the scFv to captured biotinylated CD28 antigen is read.

Assay [4] concerns the target T1, Ab-12, anti-PD-L1xCD28 non-masked …. In words: competition ELISA: peptide titrated against 5 nM Ab-12; binding of Ab-12 to captured biotinylated CD28 antigen is read. The source holds these as a separate data set.
For assay [5], the target named is T2, anti-CD28 scFv (SEQ ID NO: 9). In words: competition ELISA: peptide titrated against 2 nM anti-CD28 scFv; binding of the scFv to captured biotinylated CD28 antigen is read. The source holds these as a separate data set.
Assay [6] concerns the target T1, Ab-12, anti-PD-L1xCD28 non-masked …. Briefly: competition ELISA: peptide titrated against 5 nM Ab-12; binding of Ab-12 to captured biotinylated CD28 antigen is read; table prints 'IC50 nM' but the axis is Log [Peptide, uM].
Assay [7] has the same target. Briefly: competition ELISA: peptide titrated against 5 nM Ab-12; binding of Ab-12 to captured biotinylated CD28 antigen is read. The source holds these as a separate data set.
Assay [8] shares this target. The description is as above. The source holds these as a separate data set.

What is called IC50 is the point on the concentration scale where inhibition reaches its midpoint. High values mean a need for much substance, low ones inhibition by little substance.

Ends that are not written are not given here.

B1: Peptide-12 (peptide)
peptide: GYCHYWGDMVMWCG
modifications: cysteine pairing not given here; also: biotinylated, site not given here
notes: also called Peptide-12_200 nM
In assay [1], B1 came in with an IC50 of 21 nM.

B2: Peptide-9 (peptide)
peptide: MDWCPRERWVDCFF
modifications: cysteine pairing not given here; also: biotinylated, site not given here
As for B2, the IC50 in assay [2] came to 2630 nM; in assay [5] it was 1280 nM; in assay [6], 1.54 nM; in assay [7] it was 1860 nM; in assay [8], 2240 nM. The “IC50 (read off the curve)” value in assay [3] and in assay [4] was around 2 µM throughout.
